Two molecules from article PMC11021452, “Exposing the molecular heterogeneity of glycosylated biotherapeutics” (Nature Communications, 2024) can be followed below.

In this assay the target is T1, IL-22 RA1 extracellular domain (ECD) (UniProt Q8N6P7 16-228).
T1 construct: Coated on the ELISA plate; also called IL22 receptor; IL22R1A
T1 sequence (looked up): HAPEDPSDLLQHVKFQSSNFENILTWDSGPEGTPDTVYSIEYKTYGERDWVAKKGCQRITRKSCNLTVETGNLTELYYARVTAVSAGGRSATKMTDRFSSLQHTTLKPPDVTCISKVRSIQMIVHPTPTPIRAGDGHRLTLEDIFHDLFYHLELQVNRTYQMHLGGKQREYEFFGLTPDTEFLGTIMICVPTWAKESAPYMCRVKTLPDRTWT
The experiment in a line: ELISA; 96-well plate coated with IL-22 RA1 ECD; varying concentrations of IL22-Fc added in duplicate; bound IL22-Fc detected with goat anti-human IgG-HRP and TMB; potency by parallel curve program relative to the reference standard. The conditions noted are these: both partners purified. Background: An ELISA detects its analyte on a solid surface through an enzyme-linked reagent.

Changes are numbered by the printed parent chain. Names and notes keep the numbering of the source.

B1: enzymatically desialylated IL22-Fc (Fc fusion, UniProt Q9GZX6 34-179, looked up)
chain: APISSHCRLDKSNFQQPYITNRTFMLAKEASLADNNTDVRLIGEKLFHGVSMSERCYLMKQVLNFTLEEVLFPQSDRFQPYMQEVVPFLARLSNRLSTCHIEGDDLHIQRNVQKLKDTVKKLGESGEIKAIGELDLLFMSLRNACI
modifications: N-linked glycans with the sialic acids enzymatically removed
notes: IL22 cytokine of the IL22-Fc fusion UTTR1147A, same chain as m1; Same polypeptide as m1; differs only in the glycans; also called sialidase-treated IL22-Fc; source: IL22-Fc from cell culture fermentation, purified, then enzymatically desialylated
As for B1, the “fold change in binding against control IL22-Fc” value is around 2 fold.

B2: IL22-Fc N21Q point mutant (Fc fusion, UniProt Q9GZX6 34-179, looked up)
chain: B1 chain with N21Q
modifications: N-linked glycans; the glycosylation site at N21 knocked out
notes: IL22 cytokine of the IL22-Fc fusion UTTR1147A with N21Q; Parent is m1; source: 10 day CHO cell culture fermentations, SP Sepharose Fast Flow ion exchange chromatography
On to B2, for which the “fold change in potency (binding ELISA) relative to wild type” value amounted to 3.98 fold.
